Substitutions are numbered along the chain they refer to. Ends that are not written are not given here. * marks the point of attachment. Biotin = O=C1N[C@H]2[C@H](CS[C@H]2CCCCC(=O)*)N1; Ttds = NCCCOCCOCCOCCCNC(=O)CCC(=O)*
T1: biotinylated synthetic peptide containing the PDZ-binding motif of cadherin-related 23 …
T1 peptide: {Biotin-Ttds}-VIMESPLEITEL

B1: wild-type PDZ2 domain of harmonin (domain or fragment)
chain: GGLGSPGNRTTKEKKVFISLVGSRGLGCSISSGPIQKPGIFVSHVKPGSLSAEVGLETGDQIVEVNGIDFTNLDHKEAVNVLKSSRSLTISIVAGAGRE
B2: variant PDZ2 domain of harmonin carrying p.Gly223Cys (domain or fragment)
chain: B1 chain with G27C

Target: T1, biotinylated synthetic peptide …
Assay: BLI

Binder | Kd
B1 | 37.6 ± 4.1 µM
B2 | 621 ± 88 µM

Source: PMC6933062 (Annals of Laboratory Medicine, 2019)
